Measurements published in patent publication US6900050 (ROCKEFELLER UNIVERSITY, dated 2005).

T1: LexA DNA binding domain-TRAF2 fusion protein (UniProt P0A7C2 1-202; P39429 1-501)
T1 construct: also called LexA-TRAF2
T1 sequence (looked up): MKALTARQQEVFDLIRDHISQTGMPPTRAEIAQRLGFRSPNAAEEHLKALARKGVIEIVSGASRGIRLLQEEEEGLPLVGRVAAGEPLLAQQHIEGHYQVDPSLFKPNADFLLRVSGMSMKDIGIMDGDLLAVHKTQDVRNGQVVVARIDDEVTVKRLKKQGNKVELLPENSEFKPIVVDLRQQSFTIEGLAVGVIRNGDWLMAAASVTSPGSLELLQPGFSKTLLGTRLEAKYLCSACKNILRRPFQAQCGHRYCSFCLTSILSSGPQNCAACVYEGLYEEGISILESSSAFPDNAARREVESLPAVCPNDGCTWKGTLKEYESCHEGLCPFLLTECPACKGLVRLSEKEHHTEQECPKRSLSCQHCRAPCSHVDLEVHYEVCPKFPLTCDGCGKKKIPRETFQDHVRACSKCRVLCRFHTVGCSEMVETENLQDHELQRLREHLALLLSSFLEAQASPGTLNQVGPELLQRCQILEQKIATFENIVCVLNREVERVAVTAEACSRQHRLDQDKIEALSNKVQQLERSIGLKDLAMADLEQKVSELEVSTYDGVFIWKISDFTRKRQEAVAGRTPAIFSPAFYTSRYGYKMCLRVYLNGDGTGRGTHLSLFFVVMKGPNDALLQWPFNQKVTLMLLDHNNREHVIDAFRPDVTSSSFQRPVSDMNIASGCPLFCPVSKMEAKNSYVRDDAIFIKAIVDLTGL

T2: LexA DNA binding domain-TRAF1 fusion protein (bait plasmid pEG202-TRAF1) (UniProt P0A7C2 1-202; P39428 1-409)
T2 construct: also called LexA-TRAF1
T2 sequence (looked up): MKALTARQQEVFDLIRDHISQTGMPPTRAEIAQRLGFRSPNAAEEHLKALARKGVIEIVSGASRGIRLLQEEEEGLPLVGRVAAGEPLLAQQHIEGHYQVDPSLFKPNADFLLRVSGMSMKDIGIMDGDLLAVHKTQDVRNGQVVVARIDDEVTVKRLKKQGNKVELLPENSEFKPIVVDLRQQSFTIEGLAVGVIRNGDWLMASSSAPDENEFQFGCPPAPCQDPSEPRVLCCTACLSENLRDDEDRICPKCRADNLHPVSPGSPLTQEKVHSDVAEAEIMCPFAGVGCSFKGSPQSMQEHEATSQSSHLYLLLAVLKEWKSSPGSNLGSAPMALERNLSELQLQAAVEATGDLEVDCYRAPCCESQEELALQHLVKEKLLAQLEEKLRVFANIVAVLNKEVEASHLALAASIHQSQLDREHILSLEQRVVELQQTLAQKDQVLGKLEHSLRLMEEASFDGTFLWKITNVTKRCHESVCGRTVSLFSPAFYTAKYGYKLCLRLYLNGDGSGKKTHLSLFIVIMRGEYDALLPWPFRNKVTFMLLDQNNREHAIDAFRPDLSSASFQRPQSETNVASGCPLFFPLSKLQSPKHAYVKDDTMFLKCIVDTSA


Key:
[1] = target: T1, LexA DNA binding domain-TRAF2 fusion …; assay: yeast two-hybrid, b-gal activity
Source text: (§1) The yeast two-hybrid assay was used to determine the structural requirements for the interaction of TRIP with TRAF1 or TRAF2. […] Expression vectors encoding wild type TRIP or the indicated deletion mutants of TRIP fused to the transcription activation domain were cotransformed into yeast with plasmids expressing LexA DNA binding domain-TRAF1 or -TRAF2 fusion proteins. Inter-actions between fusion proteins were scored by measuring b-gal activity of yeast transformants. The "+" indicates average b-gal activity of three independent yeast transformants was higher than 1000 Miller units; and the "−" indicates average b-gal activity of three independent yeast transformants was about 100 Miller units, which was similar to that of negative controls (bait plasmid alone).

[2] = target: T2, LexA DNA binding domain-TRAF1 fusion …; assay: yeast two-hybrid, b-gal activity
Source text: as §1

GST alone (control) = target: T3, GST alone (control) (UniProt P08515 1-218 = GST); assay: glutathione-Sepharose coprecipitation from 293 cells, Western blot (control)
T3 construct: Control for the glutathione-Sepharose coprecipitations; also called GST proteins
T3 sequence (P08515 whole entry): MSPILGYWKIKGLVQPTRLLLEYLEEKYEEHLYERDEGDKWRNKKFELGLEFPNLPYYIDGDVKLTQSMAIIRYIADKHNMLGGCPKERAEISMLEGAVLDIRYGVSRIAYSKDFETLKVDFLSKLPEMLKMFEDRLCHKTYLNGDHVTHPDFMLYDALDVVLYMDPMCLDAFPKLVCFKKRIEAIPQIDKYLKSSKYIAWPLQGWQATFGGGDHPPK
Description: Cell lysates were precipitated with glutathione-Sepharose beads, and analyzed by Western blot analysis with anti-TRAF1 or anti-TRAF2 antibodies. The 293 cells were transfected with various combinations of expression vectors and thirty-six hours after transfection, cells were harvested in phosphate-buffered saline/1 mM phenylmethylsulfonyl fluoride, pelleted, and lysed in lysis buffer (20 mM Hepes (pH 7.9), 100 mM KCl, 300 mM NaCl, 10 mM EDTA, 0.1% NP-40, plus protease inhibitors). After lysis, aliquots of cell lysates were incubated with glutathione-Sepharose (Pharmacia) for 2 hr at 4° C. […]
However, since the interaction of TRAFs with the cognate members of the TNFR superfamily is mediated through the TRAF-C domain rather than the entire TRAF domain, it was-important to determine whether TRIP can indirectly interact with the receptors through TRAFs. […] Cell lysates were precipitated with glutathione-Sepharose beads, and analyzed on Western blots with anti-HA, anti-TRAF1, and anti-TRAF2 antibodies. […]
Aliquots of cell lysates were subjected for purification with glutathione-Sepharose beads as described in Experimental Procedures. Proteins coprecipitated with GST-fusion proteins were analyzed by Western analysis with an anti-HA mAb (12CA5), and anti-TRAF1- or anti-TRAF2-polyclonal antibodies.

Binder	binding result [1]	binding result [2]	binding result (GST alone (control))
mutant TRIP lacking the N-terminal RING finger and the coiled-coil domain (residues 275-470) fused to the transcription activation domain (other, not shown: large carriers) PGNLEPASATNETVSRLVFESPAPVEMMNPRLHQPPFGDEIDLNTTFDVNTPPTQTSGSQHCLPKKLCLERARSPMQNVLKKVHKVSKPESQLSLGGQRCVGELDEELAGAFPLFIRNAVLGQKQPNRTTAESRSSTDVVRIGFDGLGGRTKFIQPRDTTIIRPVPVKSKAKSKQKVRIKTVSSASQPKLDTFLCQ	no binding	no binding	
HA epitope tagged-TRIP expressed in 293 cells (other, not shown: small tags and cut ends, also called HA-TRIP) MPILSLCTICSDFFDHSRDVAAIHCGHTFHLQCLIQWFETAPSRTCPQCRIQVGKKTIINKLFFDLAQEEENVLDAEFLKNELDSVKAQLSQKDREKRDSQAIIDTLRDTLEERNATVESLQNALNKAEMLCSTLKKQMKFLEQRQDETKQAREEAHRLKCKMKTMEQIELLLQSQRSEVEEMIRDMGVGQSAVEQLAVYCVSLKKEYENLKEARKATGELADRLKKDLVSSRSKLKTLNTELDQAKLELRSAQKDLQSADQEITSLRKKSDDPPGNLEPASATNETVSRLVFESPAPVEMMNPRLHQPPFGDEIDLNTTFDVNTPPTQTSGSQHCLPKKLCLERARSPMQNVLKKVHKVSKPESQLSLGGQRCVGELDEELAGAFPLFIRNAVLGQKQPNRTTAESRSSTDVVRIGFDGLGGRTKFIQPRDTTIIRPVPVKSKAKSKQKVRIKTVSSASQPKLDTFLCQ			no binding
